# Results taken from US12077599 (SEOUL NATIONAL UNIVERSITY R AND DB FOUNDATION NATIONAL …, dated 2024).
# Numbering of substitutions follows the chain as printed. Numbers in names are those of the source.
# T1: ROS1 synthetic peptide (amino acids 39-56 of ROS1 combined to GGGC) conjugated to BSA (human, not fully specified; conjugated to bovine serum albumin (BSA) or ovalbumin (OVA))
# T1 peptide: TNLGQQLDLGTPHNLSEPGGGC
# B1: 3B20 scFv (phage-displayed clone) (scFv)
# scFv: LTQPSSVSANLGGTVKITCSGGSYGYGWYQQKAPGSAPVTVIYDNTNRPSDIPSRFSGSKSGSTGTLTITGVQVEDEAVYYCGSADSSSIATFGAGTTLTVLGQSSRSSGGGGSSGGGGSAVTLDESGGGLQTPGGTLSLVCKASGFSFSDRGMHWMRQAPGKGLEYVGAISGDGYITHYGAAVKGRATISRDNGQSTVRLQLNNLRAEDTATYYCTRGGGGNIDAWGHGTEVIVSSTS
# notes: the phage coat fusion is not described
# B2: 3B20 scFv-Cκ fusion protein (scFv)
# chain: B1 scFv
# notes: Coated on the plate in the alanine scanning ELISA; not shown: human kappa light chain constant region (Cκ)
# B3: 3B20-G1K scFv (phage-displayed clone) (scFv)
# scFv: B1 scFv with V39A, G219K
# notes: Clone from the HCDR3 first-residue NNK library in pComb3XSS, tested as phage in ELISA; also called 3B20-GIK
# B4: 3B20-G1K scFv-rFc fusion protein (Fc fusion)
# scFv: B1 scFv with V39A, G219K
# notes: also called 3B20-G1K-rFc; 3B20(scFv)-G1K-rFc fusion protein; not shown: rabbit antibody Fc (rFc)
# B5: 3B20 scFv-rFc fusion protein (Fc fusion, rabbit)
# chain: B1 scFv
# notes: domain: fragment crystallizable region Fc (rFc); scFv fused with rabbit Fc, expressed from modified pCEP4; also called 3B20-rFc; scFv(3B20)-rFc fusion protein; not shown: rabbit antibody fragment crystallizable region Fc (rFc)
# B6: alanine-substituted ROS1-hFc fusion protein, Gly42 replaced with alanine (Fc fusion, not shown: a dimerising Fc or GST; small tags and cut ends)
# chain: CVTNLAQQLDLGTPHNLSEPCIQGCHFWNSVDQKNCALKCRESCEVGCSSAEGAYEEEVLENADLPTAPFASSIGSHNMTLRWKSANFSGVKYIIQWKYAQLLGSWTYTKTVSRPSYVVKPLHPFTEYIFRVVWIFTAQLQLYSPPSPSYRTHPHGVPETAPLIRNIESSSPDTVEVSWDPPQFPGGPILGYNLRLISKNQKLDAGTQRTSFQFYSTLPNTIYRFSIAAVNEVGEGPEAESSITTSSSAVQQEE
# notes: One of the 13 single alanine mutants from Gly42 to Ser54; also called G42A
# B7: alanine-substituted ROS1-hFc fusion protein, Gln44 replaced with alanine (Fc fusion, not shown: a dimerising Fc or GST; small tags and cut ends)
# chain: B6 chain with A6G, Q8A
# notes: also called Q44A
# B8: alanine-substituted ROS1-hFc fusion protein, L47A mutant (Fc fusion, not shown: a dimerising Fc or GST; small tags and cut ends)
# chain: B6 chain with A6G, L11A
# notes: also called L47A mutant of ROS1 protein
# B9: alanine-substituted ROS1-hFc fusion protein, L45A mutant (Fc fusion, not shown: a dimerising Fc or GST; small tags and cut ends)
# chain: B6 chain with A6G, L9A
# notes: also called L45A mutant of ROS1 protein
# B10: alanine-substituted ROS1-hFc fusion protein, G48A mutant (Fc fusion, not shown: a dimerising Fc or GST; small tags and cut ends)
# chain: B6 chain with A6G, G12A
# notes: also called G48A mutant of ROS1 protein
# B11: alanine-substituted ROS1-hFc fusion protein, Gln43 replaced with alanine (Fc fusion, not shown: a dimerising Fc or GST; small tags and cut ends)
# chain: B6 chain with A6G, Q7A
# notes: also called Q43A
# B12: alanine-substituted ROS1-hFc fusion protein, Asp46 replaced with alanine (Fc fusion, not shown: a dimerising Fc or GST; small tags and cut ends)
# chain: B6 chain with A6G, D10A
# notes: also called D46A
# Columns and labels:
# [1] = target: T1, ROS1 synthetic peptide (amino acids …); experiment: phage ELISA after five rounds of biopanning on the peptide conjugate
# Text: Three White Leghorn chickens were immunized and boosted three times with the synthetic peptide ([…] […] (SEQ ID NO: 16); fusion polypeptide in which the 39th to 56th amino acid regions of ROS1 (GenBank Accession No. NP_002935.2) combined to "GGGC") conjugated to keyhole limpet hemocyanin (Peptron; Daejun, S. Korea). A phage display of a chicken single-chain variable fragment (scFv) antibody library was constructed [See C. F. Barbas, Phage Display: a Laboratory Manual, Cold Spring Harbor Laboratory Press, Cold Spring Harbor, N Y, 2001]. After five rounds of biopanning on the ROS1 synthetic peptide ([…]-[…]) conjugated to either bovine serum albumin (BSA) or ovalbumin (OVA), the single-chain variable fragment (scFv)-displaying phages were subjected to enzyme-linked immunosorbent assay (ELISA) [See C. F. Barbas, Phage Display: a Laboratory Manual, Cold Spring Harbor Laboratory Press, Cold Spring Harbor, N Y, 2001; S. Park, D. H. Lee, J. G. Park, Y. T. Lee, J. Chung, A sensitive enzyme immunoassay for measuring cotinine in passive smokers, Clin. Chim. Acta 411 (2010) 1238-1242].
# [2] = target: B11; experiment: alanine scanning ELISA, 3B20 scFv-Cκ coated, ROS1-hFc mutant in solution, HRP anti-hFc
# Description: (§1) For alanine scanning mutagenesis of the 3B20 scFv, microtiter plates (Corning Costar) were coated with 100 ng of the 3B20 scFv-Cκ fusion protein, BSA, or the irrelevant scFv-Cκ fusion protein overnight at 4° ° C. After blocking, the plates were incubated with alanine-substituted ROS1-human antibody Fc (hFc) fusion proteins (each amino acid residue from the 42th amino acid residue (Gly) to the 54th amino acid residue (Ser) was replaced with alanine) or a wild type ROS1-hFc fusion protein. The amount of bound fusion protein was determined using an HRP-conjugated rabbit anti-human IgG Fc antibody (Thermo Fisher Scientific, Rockford, IL, USA).
# (§2) Example 2. Epitope Mapping of the 3B20 scFv by Alanine Scanning Mutagenesis Assay To further confirm the epitope of the 3B20 scFv, alanine scanning mutagenesis assay was performed using recombinant ROS1 proteins corresponding to amino acids 37-290. First, alanine-substituted ROS1 mutants in which any one of amino acid residues from Gly42 to Ser54 of ROS1 was substituted were prepared. After coating the microtiter plate well with the 3B20 scFv-Cκ fusion protein, BSA or irrelevant scFv-Cκ fusion protein, the plate was incubated with the alanine-substituted ROS1-hFc fusion protein or wild-type ROS1-hFc fusion protein. The amount of the ROS1-hFc fusion protein combined to the plate was measured using the HRP-conjugated anti-hFc antibody and ATBS solution. The obtained result was shown in FIG. 2a (3B20 scFv-Cκ fusion protein coating), 2b (BSA coating) and 2c (irrelevant scFv-Cκ fusion protein coating).
# [3] = target: B6; experiment: as above
# Description: as §1, §2
# [4] = target: B7; experiment: as above
# Description: as §1, §2
# [5] = target: B12; experiment: as above
# Description: as §1, §2
# [6] = target: T2, GRP75 (Enzo Life Sciences) (UniProt P38646 47-679, limits assumed); experiment: phage ELISA
# T2 construct: Purchased protein coated in ELISA
# T2 sequence (P38646 47-679 limits assumed): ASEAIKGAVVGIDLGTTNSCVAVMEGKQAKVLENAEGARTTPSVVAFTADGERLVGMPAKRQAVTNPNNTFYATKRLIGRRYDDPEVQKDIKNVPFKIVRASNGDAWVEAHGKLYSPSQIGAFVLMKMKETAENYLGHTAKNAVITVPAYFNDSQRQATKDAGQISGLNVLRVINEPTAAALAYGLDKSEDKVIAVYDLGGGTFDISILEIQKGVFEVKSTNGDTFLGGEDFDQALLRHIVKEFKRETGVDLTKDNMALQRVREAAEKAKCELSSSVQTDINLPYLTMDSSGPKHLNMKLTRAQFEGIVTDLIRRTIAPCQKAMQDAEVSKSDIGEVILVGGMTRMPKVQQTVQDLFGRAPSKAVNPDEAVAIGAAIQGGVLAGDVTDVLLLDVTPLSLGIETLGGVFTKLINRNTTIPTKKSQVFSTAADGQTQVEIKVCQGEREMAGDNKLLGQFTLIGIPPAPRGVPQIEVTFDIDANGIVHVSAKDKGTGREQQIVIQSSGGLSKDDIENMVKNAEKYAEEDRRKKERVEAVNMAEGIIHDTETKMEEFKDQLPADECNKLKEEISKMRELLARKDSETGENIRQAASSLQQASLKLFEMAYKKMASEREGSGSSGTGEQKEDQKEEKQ
# Description: Each codon in the bracket in the forward primer sequence of the second fragment was replaced with NNK. Subsequently, these PCR fragments were purified and subjected to overlap extension PCR. The overlap extension PCR was performed using 100 ng PCR fragments each by after preparatory modification of DNA at 95° C. for 5 minutes, 30 cycles of DNA modification at 95° C. for 30 seconds, combination of primers at 56° C. for 30 seconds, and elongation at 72° C. for 30 seconds, and then it was terminated after incubation for 5 minutes. The obtained overlap extension PCR products were purified and subcloned into a pComb3XSS phagemid vector using Sfi I restriction enzyme and transformed into *Escherichia coli* [See C. F. Barbas, Phage Display: a Laboratory Manual, Cold Spring Harbor Laboratory Press, Cold Spring Harbor, N Y, 2001]. From the output titer plate, phages were rescued from randomly selected colonies and subjected to ELISA [See C. F. Barbas, Phage Display: a Laboratory Manual, Cold Spring Harbor Laboratory Press, Cold Spring Harbor, N Y, 2001].
# Example 3. Screening of Modified scFv with Enhanced Specificity from the HCDR3 Site-Directed Mutagenesis Library Based on the result of Example 2, to generate monoclonal antibody clones nonreactive to Hsp70 but reactive to ROS1, HCDR3 site-directed mutagenesis libraries were constructed. […]
# [7] = target: T2, GRP75 (Enzo Life Sciences); experiment: ELISA, GRP75 coated, detection with HRP anti-rabbit IgG
# Description: Microtiter plates (Costar, Cambridge, MA, USA) were coated with 100 ng of a recombinant ROS1 (37-290 amino acids)-Cκ fusion protein, an irrelevant protein (recombinant PSA (prostate cancer specific antigen; NP_001025218.1))-Cκ fusion protein the synthetic peptide ([…]-[…])-BSA conjugate or GRP75 (Enzo Life Sciences, Farmingdale, NY, USA) dissolved in coating buffer (0.1 M sodium bicarbonate, pH 8.6). After blocking, 3B20-rFc or 3B20-G1K (the first amino acid G of HCDR3 of 3B20 was substituted to K)-rFc fusion proteins were added. The amounts of bound antibodies were determined using a horseradish peroxidase (HRP)-conjugated goat anti-rabbit IgG antibody (Abcam, Cambridge Science Park, Cambridge, UK) and 2,20-azinobis [3-ethylbenzothiazoline-6-sulfonic acid]-diammonium salt (ABTS) substrate solution (Amresco LLC, Solon, OH, USA). All experiments were performed in triplicate.
# To test the specificity of 3B20-GlK, a recombinant 3B20-G1K scFv-Cκ fusion protein was prepared. Then ELISA, immunoblot, and immunoprecipitation analyses were performed in parallel with 3B20 for the prepared fusion protein. […] After blocking, the 3B20-rFc fusion protein or 3B20-G1K-rFc fusion protein was added to the well in a concentration of 0 to 2000 ng/ml, and the amount of the fusion protein combined to the well was measured by ELISA using the HRP-conjugated anti-rabbit IgG antibody and ABTS solution. […]
# [8] = target: T3, Heat shock 70 kDa protein 1A/1B, from HEK293T cell lysate (human, UniProt P0DMV8 2-641); experiment: immunoprecipitation with 3B20 scFv-rFc from HEK293T lysates, LC-MS of the 70 kDa band
# T3 construct: Identified by LC-MS/MS against the IPI human database; also called Hsp70; HSP70
# T3 sequence (P0DMV8 2-641 limits assumed): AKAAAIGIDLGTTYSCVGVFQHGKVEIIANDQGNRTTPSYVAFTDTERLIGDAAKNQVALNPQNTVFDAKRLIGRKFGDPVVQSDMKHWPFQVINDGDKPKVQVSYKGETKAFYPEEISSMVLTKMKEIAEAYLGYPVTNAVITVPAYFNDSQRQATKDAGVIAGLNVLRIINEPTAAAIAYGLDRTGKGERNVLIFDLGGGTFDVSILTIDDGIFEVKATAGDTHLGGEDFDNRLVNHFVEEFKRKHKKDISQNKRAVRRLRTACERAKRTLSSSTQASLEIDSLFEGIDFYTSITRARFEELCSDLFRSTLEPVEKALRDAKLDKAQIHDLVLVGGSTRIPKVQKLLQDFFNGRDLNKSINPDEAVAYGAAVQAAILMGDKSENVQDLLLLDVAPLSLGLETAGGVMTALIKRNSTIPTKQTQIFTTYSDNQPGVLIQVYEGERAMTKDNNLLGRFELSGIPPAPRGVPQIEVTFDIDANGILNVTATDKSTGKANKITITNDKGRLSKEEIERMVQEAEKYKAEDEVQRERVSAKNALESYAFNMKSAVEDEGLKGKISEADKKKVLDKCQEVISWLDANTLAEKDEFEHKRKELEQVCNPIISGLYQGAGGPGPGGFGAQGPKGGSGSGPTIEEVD
# Description: (§3) HEK293T cell lines overexpressing either ROS1 or GFP were lysed in cold lysis buffer [1% Triton X-100, 150 mM NaCl, 50 mM Tris (pH 8.0)] containing 1 mM phenylmethane sulfonyl fluoride (Merck KGaA, Darmstadt, Germany) a protease inhibitor cocktail (Roche), and a phosphatase inhibitor cocktail (Roche). Lysates were incubated with 3B20 scFv or 3B20 scFv-G1K fused to the rFc fusion protein (5 μg/mL) and protein A-conjugated agarose beads (RepliGen, Waltham, MA, USA). After washing, proteins bound to beads were eluted by boiling in NuPAGE LDS Sample Buffer (Thermo Fisher Scientific) and subjected to SDS-PAGE and immunoblotting (See Reference example 4). The eluted proteins separated by SDS-PAGE were visualized using Coomassie Brilliant Blue R250 (Merck). […]
# (§4) To investigate the proteins reactive to 3B20 scFv, immunoprecipitation was performed using a 3B20 scFv-rFc fusion protein from HEK293T cells transfected with lentiviral vector encoding human ROS1 (full-length) or GFP (control). […] Bands corresponding to 70 kDa and 260 kDa were excised from the gel and analyzed by liquid chromatography/MS. The obtained result was shown in FIG. 1c, and the list of proteins analyzed in (A) and (B) bands represented by arrows in FIG. 1c was shown in the following Table 2. As expected, ROS1 (accession number: IPI0028965; SEQ ID NO: 9) was detected in a band of 260 kDa.
# [9] = target: T4, Stress-70 protein, mitochondrial (GRP75), from HEK293T cell lysate (human, UniProt P38646 47-679); experiment: as above
# T4 construct: Identified by LC-MS/MS against the IPI human database; also called IPI00007765 (+1)
# T4 sequence (P38646 47-679 limits assumed): as the sequence (P38646 47-679 limits assumed) above
# Description: as §3, §4
# bovine serum albumin = target: T5, bovine serum albumin (bovine, UniProt P02769 25-607); experiment: ELISA, BSA coated, ROS1-hFc mutant in solution, HRP anti-hFc
# T5 construct: Negative control coating in the alanine scanning ELISA; also called BSA
# T5 sequence (P02769 25-607 limits assumed): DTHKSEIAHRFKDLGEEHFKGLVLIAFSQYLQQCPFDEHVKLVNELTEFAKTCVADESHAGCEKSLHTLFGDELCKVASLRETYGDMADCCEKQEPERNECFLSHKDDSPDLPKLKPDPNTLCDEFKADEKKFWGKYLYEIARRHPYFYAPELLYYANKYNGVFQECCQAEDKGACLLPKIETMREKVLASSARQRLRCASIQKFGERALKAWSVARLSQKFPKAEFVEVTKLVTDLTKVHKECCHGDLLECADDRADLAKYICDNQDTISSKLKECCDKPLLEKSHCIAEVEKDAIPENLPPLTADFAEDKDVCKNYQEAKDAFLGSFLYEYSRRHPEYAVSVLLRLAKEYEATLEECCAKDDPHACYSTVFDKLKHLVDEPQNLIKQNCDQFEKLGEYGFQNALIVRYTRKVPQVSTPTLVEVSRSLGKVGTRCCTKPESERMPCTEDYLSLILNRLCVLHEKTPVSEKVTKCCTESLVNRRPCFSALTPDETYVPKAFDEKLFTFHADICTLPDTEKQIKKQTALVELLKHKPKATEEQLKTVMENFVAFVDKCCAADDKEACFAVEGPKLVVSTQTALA
# Description: as §1, §2
binder,measurement,setting,value
B1,binding result,[1],binds
B2,binding result,[2],binds
same,binding result,[3],binds
same,binding result,[4],binds
same,binding result,[5],binds
B3,binding result,[6],no binding
B4,binding result,[7],no binding (tested: 2 µg/mL)
B5,binding result,[8],binds
same,binding result,[9],binds
B6,binding result,bovine serum albumin,no binding
B7,binding result,bovine serum albumin,no binding
B8,binding result,bovine serum albumin,no binding
B9,binding result,bovine serum albumin,no binding
B10,binding result,bovine serum albumin,no binding
B11,binding result,bovine serum albumin,no binding
B12,binding result,bovine serum albumin,no binding
